Data as given in IntAct's records for PubMed 35512704.

B1: Speckle-type POZ protein (Homo sapiens), O43791 (parent)
chain: MSRVPSPPPPAEMSSGPVAESWCYTQIKVVKFSYMWTINNFSFCREEMGEVIKSSTFSSGANDKLKWCLRVNPKGLDEESKDYLSLYLLLVSCPKSEVRAKFKFSILNAKGEETKAMESQRAYRFVQGKDWGFKKFIRRDFLLDEANGLLPDDKLTLFCEVSVVQDSVNISGQNTMNMVKVPECRLADELGGLWENSRFTDCCLCVAGQEFQAHKAILAARSPVFSAMFEHEMEESKKNRVEINDVEPEVFKEMMCFIYTGKAPNLDKMADDLLAAADKYALERLKVMCEDALCSNLSVENAAEILILADLHSADQLKTQAVDFINYHASDVLETSGWKSMVVSHPHLVAEAYRSLASAQCPFLGPPRKRLKQS

Variants of: B1
Conditions: with rl5_human RPL5, P46777

effect of a mutation on the interaction	Variant
with no effect	MSRVPSPPPPAEMSSGPVAESWCYTQIKVVKFSYMWTINNFSFCREEMGEVIKSSTFSSGANDKLKWCLRVNPKGLDEESKDYLSLYLLLVSCPKSEVRAKFKFSILNAKGEETKAMESQRAYRFVQGKDWGVKKFIRRDFLLDEANGLLPDDKLTLFCEVSVVQDSVNISGQNTMNMVKVPECRLADELGGLWENSRFTDCCLCVAGQEFQAHKAILAARSPVFSAMFEHEMEESKKNRVEINDVEPEVFKEMMCFIYTGKAPNLDKMADDLLAAADKYALERLKVMCEDALCSNLSVENAAEILILADLHSADQLKTQAVDFINYHASDVLETSGWKSMVVSHPHLVAEAYRSLASAQCPFLGPPRKRLKQS [F133V]

Variants of: B1
Conditions: with rs15_human RPS15, P62841

effect of a mutation on the interaction	Variant
with no effect	MSRVPSPPPPAEMSSGPVAESWCYTQIKVVKFSYMWTINNFSFCREEMGEVIKSSTFSSGANDKLKWCLRVNPKGLDEESKDYLSLYLLLVSCPKSEVRAKFKFSILNAKGEETKAMESQRAYRFVQGKDWGVKKFIRRDFLLDEANGLLPDDKLTLFCEVSVVQDSVNISGQNTMNMVKVPECRLADELGGLWENSRFTDCCLCVAGQEFQAHKAILAARSPVFSAMFEHEMEESKKNRVEINDVEPEVFKEMMCFIYTGKAPNLDKMADDLLAAADKYALERLKVMCEDALCSNLSVENAAEILILADLHSADQLKTQAVDFINYHASDVLETSGWKSMVVSHPHLVAEAYRSLASAQCPFLGPPRKRLKQS [F133V]

Variants of: B1
Conditions: with rxra_human RXRA

effect of a mutation on the interaction	Variant
with no effect	MSRVPSPPPPAEMSSGPVAESWCYTQIKVVKFSYMWTINNFSFCREEMGEVIKSSTFSSGANDKLKWCLRVNPKGLDEESKDYLSLYLLLVSCPKSEVRAKFKFSILNAKGEETKAMESQRAYRFVQGKDWGVKKFIRRDFLLDEANGLLPDDKLTLFCEVSVVQDSVNISGQNTMNMVKVPECRLADELGGLWENSRFTDCCLCVAGQEFQAHKAILAARSPVFSAMFEHEMEESKKNRVEINDVEPEVFKEMMCFIYTGKAPNLDKMADDLLAAADKYALERLKVMCEDALCSNLSVENAAEILILADLHSADQLKTQAVDFINYHASDVLETSGWKSMVVSHPHLVAEAYRSLASAQCPFLGPPRKRLKQS [F133V]

Variants of: B1
Conditions: with sdha_human SDHA

effect of a mutation on the interaction	Variant
with no effect	MSRVPSPPPPAEMSSGPVAESWCYTQIKVVKFSYMWTINNFSFCREEMGEVIKSSTFSSGANDKLKWCLRVNPKGLDEESKDYLSLYLLLVSCPKSEVRAKFKFSILNAKGEETKAMESQRAYRFVQGKDWGVKKFIRRDFLLDEANGLLPDDKLTLFCEVSVVQDSVNISGQNTMNMVKVPECRLADELGGLWENSRFTDCCLCVAGQEFQAHKAILAARSPVFSAMFEHEMEESKKNRVEINDVEPEVFKEMMCFIYTGKAPNLDKMADDLLAAADKYALERLKVMCEDALCSNLSVENAAEILILADLHSADQLKTQAVDFINYHASDVLETSGWKSMVVSHPHLVAEAYRSLASAQCPFLGPPRKRLKQS [F133V]

Variants of: B1
Conditions: with setbp_human SETBP1, Q9Y6X0

effect of a mutation on the interaction	Variant
with no effect	MSRVPSPPPPAEMSSGPVAESWCYTQIKVVKFSYMWTINNFSFCREEMGEVIKSSTFSSGANDKLKWCLRVNPKGLDEESKDYLSLYLLLVSCPKSEVRAKFKFSILNAKGEETKAMESQRAYRFVQGKDWGVKKFIRRDFLLDEANGLLPDDKLTLFCEVSVVQDSVNISGQNTMNMVKVPECRLADELGGLWENSRFTDCCLCVAGQEFQAHKAILAARSPVFSAMFEHEMEESKKNRVEINDVEPEVFKEMMCFIYTGKAPNLDKMADDLLAAADKYALERLKVMCEDALCSNLSVENAAEILILADLHSADQLKTQAVDFINYHASDVLETSGWKSMVVSHPHLVAEAYRSLASAQCPFLGPPRKRLKQS [F133V]

Variants of: B1
Conditions: with setb1_human SETDB1, Q15047

effect of a mutation on the interaction	Variant
with no effect	MSRVPSPPPPAEMSSGPVAESWCYTQIKVVKFSYMWTINNFSFCREEMGEVIKSSTFSSGANDKLKWCLRVNPKGLDEESKDYLSLYLLLVSCPKSEVRAKFKFSILNAKGEETKAMESQRAYRFVQGKDWGVKKFIRRDFLLDEANGLLPDDKLTLFCEVSVVQDSVNISGQNTMNMVKVPECRLADELGGLWENSRFTDCCLCVAGQEFQAHKAILAARSPVFSAMFEHEMEESKKNRVEINDVEPEVFKEMMCFIYTGKAPNLDKMADDLLAAADKYALERLKVMCEDALCSNLSVENAAEILILADLHSADQLKTQAVDFINYHASDVLETSGWKSMVVSHPHLVAEAYRSLASAQCPFLGPPRKRLKQS [F133V]

Variants of: B1
Conditions: with skp2_human SKP2, Q13309
Chain of skp2_human SKP2, Q13309 (Q13309 whole entry): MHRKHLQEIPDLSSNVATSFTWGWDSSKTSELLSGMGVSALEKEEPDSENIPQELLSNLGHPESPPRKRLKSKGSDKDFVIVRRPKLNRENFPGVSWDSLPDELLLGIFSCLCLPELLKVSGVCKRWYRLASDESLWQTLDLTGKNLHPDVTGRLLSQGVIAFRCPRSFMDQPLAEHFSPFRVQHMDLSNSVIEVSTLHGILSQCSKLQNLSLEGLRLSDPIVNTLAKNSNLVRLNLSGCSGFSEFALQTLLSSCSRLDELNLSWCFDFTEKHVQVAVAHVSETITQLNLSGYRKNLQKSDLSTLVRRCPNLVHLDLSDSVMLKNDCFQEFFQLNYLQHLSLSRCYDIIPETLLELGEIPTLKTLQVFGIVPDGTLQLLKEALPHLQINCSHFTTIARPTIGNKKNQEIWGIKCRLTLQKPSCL

effect of a mutation on the interaction	Variant
with no effect	MSRVPSPPPPAEMSSGPVAESWCYTQIKVVKFSYMWTINNFSFCREEMGEVIKSSTFSSGANDKLKWCLRVNPKGLDEESKDYLSLYLLLVSCPKSEVRAKFKFSILNAKGEETKAMESQRAYRFVQGKDWGVKKFIRRDFLLDEANGLLPDDKLTLFCEVSVVQDSVNISGQNTMNMVKVPECRLADELGGLWENSRFTDCCLCVAGQEFQAHKAILAARSPVFSAMFEHEMEESKKNRVEINDVEPEVFKEMMCFIYTGKAPNLDKMADDLLAAADKYALERLKVMCEDALCSNLSVENAAEILILADLHSADQLKTQAVDFINYHASDVLETSGWKSMVVSHPHLVAEAYRSLASAQCPFLGPPRKRLKQS [F133V]

Variants of: B1
Conditions: with xct_human SLC7A11, Q9UPY5
Chain of xct_human SLC7A11, Q9UPY5 (Q9UPY5 whole entry): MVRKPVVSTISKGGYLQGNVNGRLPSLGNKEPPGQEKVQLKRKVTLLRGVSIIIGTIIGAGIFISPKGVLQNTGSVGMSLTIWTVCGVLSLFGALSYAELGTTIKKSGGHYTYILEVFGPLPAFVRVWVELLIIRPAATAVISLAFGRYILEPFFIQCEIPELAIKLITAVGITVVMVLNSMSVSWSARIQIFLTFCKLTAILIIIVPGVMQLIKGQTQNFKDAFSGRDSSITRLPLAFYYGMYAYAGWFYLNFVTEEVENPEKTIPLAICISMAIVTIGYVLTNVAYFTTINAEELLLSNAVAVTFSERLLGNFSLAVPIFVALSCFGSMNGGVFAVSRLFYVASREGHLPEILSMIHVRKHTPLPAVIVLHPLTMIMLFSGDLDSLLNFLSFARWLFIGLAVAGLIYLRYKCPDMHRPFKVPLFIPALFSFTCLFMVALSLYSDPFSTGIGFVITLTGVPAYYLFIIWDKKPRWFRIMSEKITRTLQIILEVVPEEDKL

effect of a mutation on the interaction	Variant
with no effect	MSRVPSPPPPAEMSSGPVAESWCYTQIKVVKFSYMWTINNFSFCREEMGEVIKSSTFSSGANDKLKWCLRVNPKGLDEESKDYLSLYLLLVSCPKSEVRAKFKFSILNAKGEETKAMESQRAYRFVQGKDWGVKKFIRRDFLLDEANGLLPDDKLTLFCEVSVVQDSVNISGQNTMNMVKVPECRLADELGGLWENSRFTDCCLCVAGQEFQAHKAILAARSPVFSAMFEHEMEESKKNRVEINDVEPEVFKEMMCFIYTGKAPNLDKMADDLLAAADKYALERLKVMCEDALCSNLSVENAAEILILADLHSADQLKTQAVDFINYHASDVLETSGWKSMVVSHPHLVAEAYRSLASAQCPFLGPPRKRLKQS [F133V]

Variants of: B1
Conditions: with smad1_human SMAD1, Q15797
Chain of smad1_human SMAD1, Q15797 (Q15797 whole entry): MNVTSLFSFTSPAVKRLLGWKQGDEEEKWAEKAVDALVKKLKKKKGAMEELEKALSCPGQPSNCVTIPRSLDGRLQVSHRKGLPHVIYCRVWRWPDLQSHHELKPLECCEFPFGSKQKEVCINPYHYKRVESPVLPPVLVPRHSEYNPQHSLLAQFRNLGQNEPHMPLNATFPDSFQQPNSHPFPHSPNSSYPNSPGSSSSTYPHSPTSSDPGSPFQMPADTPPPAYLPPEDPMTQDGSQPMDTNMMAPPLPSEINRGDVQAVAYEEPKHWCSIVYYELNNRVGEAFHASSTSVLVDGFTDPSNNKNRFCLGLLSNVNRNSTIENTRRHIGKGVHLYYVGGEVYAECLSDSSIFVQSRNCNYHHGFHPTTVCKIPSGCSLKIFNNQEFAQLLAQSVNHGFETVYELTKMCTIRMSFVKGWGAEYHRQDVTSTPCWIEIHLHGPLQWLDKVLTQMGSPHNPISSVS

effect of a mutation on the interaction	Variant
with no effect	MSRVPSPPPPAEMSSGPVAESWCYTQIKVVKFSYMWTINNFSFCREEMGEVIKSSTFSSGANDKLKWCLRVNPKGLDEESKDYLSLYLLLVSCPKSEVRAKFKFSILNAKGEETKAMESQRAYRFVQGKDWGVKKFIRRDFLLDEANGLLPDDKLTLFCEVSVVQDSVNISGQNTMNMVKVPECRLADELGGLWENSRFTDCCLCVAGQEFQAHKAILAARSPVFSAMFEHEMEESKKNRVEINDVEPEVFKEMMCFIYTGKAPNLDKMADDLLAAADKYALERLKVMCEDALCSNLSVENAAEILILADLHSADQLKTQAVDFINYHASDVLETSGWKSMVVSHPHLVAEAYRSLASAQCPFLGPPRKRLKQS [F133V]

Variants of: B1
Conditions: with smca4_human SMARCA4, P51532
Chain of smca4_human SMARCA4, P51532 (P51532 whole entry): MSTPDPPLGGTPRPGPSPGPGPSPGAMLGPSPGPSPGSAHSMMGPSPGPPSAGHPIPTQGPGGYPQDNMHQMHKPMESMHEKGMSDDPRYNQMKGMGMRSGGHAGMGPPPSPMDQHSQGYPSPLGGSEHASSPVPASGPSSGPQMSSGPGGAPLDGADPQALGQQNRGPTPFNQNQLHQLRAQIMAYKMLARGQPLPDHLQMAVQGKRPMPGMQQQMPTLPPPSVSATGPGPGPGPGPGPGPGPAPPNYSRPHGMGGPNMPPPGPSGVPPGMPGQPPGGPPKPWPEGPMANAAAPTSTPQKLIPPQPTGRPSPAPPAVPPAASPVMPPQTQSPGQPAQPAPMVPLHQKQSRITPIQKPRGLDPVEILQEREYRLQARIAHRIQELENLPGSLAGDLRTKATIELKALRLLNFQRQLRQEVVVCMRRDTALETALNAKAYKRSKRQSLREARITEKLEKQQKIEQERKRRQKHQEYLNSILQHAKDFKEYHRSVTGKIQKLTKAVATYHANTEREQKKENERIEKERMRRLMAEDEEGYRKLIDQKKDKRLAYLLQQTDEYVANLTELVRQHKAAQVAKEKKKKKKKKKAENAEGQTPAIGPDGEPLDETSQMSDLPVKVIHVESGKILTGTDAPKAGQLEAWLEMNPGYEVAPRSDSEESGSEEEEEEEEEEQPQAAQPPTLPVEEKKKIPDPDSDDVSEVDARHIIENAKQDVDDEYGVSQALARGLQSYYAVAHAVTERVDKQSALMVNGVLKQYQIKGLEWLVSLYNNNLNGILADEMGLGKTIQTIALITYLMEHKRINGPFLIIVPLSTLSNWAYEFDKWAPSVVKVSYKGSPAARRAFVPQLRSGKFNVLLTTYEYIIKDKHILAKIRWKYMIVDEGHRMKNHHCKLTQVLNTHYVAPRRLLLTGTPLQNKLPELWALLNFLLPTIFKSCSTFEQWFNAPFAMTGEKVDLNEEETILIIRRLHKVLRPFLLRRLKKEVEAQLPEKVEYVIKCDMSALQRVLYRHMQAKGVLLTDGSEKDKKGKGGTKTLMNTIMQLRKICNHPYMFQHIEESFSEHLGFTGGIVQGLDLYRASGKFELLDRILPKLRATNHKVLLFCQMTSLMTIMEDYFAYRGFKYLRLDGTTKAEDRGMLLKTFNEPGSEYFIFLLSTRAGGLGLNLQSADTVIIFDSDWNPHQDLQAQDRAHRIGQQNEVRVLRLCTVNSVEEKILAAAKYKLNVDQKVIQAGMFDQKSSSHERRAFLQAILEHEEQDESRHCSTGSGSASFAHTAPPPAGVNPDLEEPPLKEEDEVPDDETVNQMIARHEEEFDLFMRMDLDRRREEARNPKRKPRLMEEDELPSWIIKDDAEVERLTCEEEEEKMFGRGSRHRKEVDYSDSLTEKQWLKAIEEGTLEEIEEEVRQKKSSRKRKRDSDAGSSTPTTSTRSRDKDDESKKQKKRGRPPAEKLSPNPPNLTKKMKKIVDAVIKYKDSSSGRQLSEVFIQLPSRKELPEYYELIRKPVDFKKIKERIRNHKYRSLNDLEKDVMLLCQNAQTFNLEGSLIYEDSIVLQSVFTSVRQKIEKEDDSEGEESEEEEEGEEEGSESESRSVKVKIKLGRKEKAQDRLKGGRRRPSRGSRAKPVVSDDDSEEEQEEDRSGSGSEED

effect of a mutation on the interaction	Variant
with no effect	MSRVPSPPPPAEMSSGPVAESWCYTQIKVVKFSYMWTINNFSFCREEMGEVIKSSTFSSGANDKLKWCLRVNPKGLDEESKDYLSLYLLLVSCPKSEVRAKFKFSILNAKGEETKAMESQRAYRFVQGKDWGVKKFIRRDFLLDEANGLLPDDKLTLFCEVSVVQDSVNISGQNTMNMVKVPECRLADELGGLWENSRFTDCCLCVAGQEFQAHKAILAARSPVFSAMFEHEMEESKKNRVEINDVEPEVFKEMMCFIYTGKAPNLDKMADDLLAAADKYALERLKVMCEDALCSNLSVENAAEILILADLHSADQLKTQAVDFINYHASDVLETSGWKSMVVSHPHLVAEAYRSLASAQCPFLGPPRKRLKQS [F133V]

Variants of: B1
Conditions: with snf5_human SMARCB1, Q12824
Chain of snf5_human SMARCB1, Q12824 (Q12824 whole entry): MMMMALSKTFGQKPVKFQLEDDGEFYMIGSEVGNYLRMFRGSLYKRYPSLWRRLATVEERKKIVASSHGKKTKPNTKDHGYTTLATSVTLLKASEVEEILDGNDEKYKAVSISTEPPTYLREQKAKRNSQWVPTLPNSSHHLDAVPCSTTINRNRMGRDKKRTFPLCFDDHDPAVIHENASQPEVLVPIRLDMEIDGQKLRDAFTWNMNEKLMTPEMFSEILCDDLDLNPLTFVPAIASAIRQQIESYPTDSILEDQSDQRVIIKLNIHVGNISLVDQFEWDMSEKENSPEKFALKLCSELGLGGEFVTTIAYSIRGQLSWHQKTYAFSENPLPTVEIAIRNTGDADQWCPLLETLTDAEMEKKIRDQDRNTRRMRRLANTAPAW

effect of a mutation on the interaction	Variant
with no effect	MSRVPSPPPPAEMSSGPVAESWCYTQIKVVKFSYMWTINNFSFCREEMGEVIKSSTFSSGANDKLKWCLRVNPKGLDEESKDYLSLYLLLVSCPKSEVRAKFKFSILNAKGEETKAMESQRAYRFVQGKDWGVKKFIRRDFLLDEANGLLPDDKLTLFCEVSVVQDSVNISGQNTMNMVKVPECRLADELGGLWENSRFTDCCLCVAGQEFQAHKAILAARSPVFSAMFEHEMEESKKNRVEINDVEPEVFKEMMCFIYTGKAPNLDKMADDLLAAADKYALERLKVMCEDALCSNLSVENAAEILILADLHSADQLKTQAVDFINYHASDVLETSGWKSMVVSHPHLVAEAYRSLASAQCPFLGPPRKRLKQS [F133V]

Variants of: B1
Conditions: with smo_human SMO

effect of a mutation on the interaction	Variant
with no effect	MSRVPSPPPPAEMSSGPVAESWCYTQIKVVKFSYMWTINNFSFCREEMGEVIKSSTFSSGANDKLKWCLRVNPKGLDEESKDYLSLYLLLVSCPKSEVRAKFKFSILNAKGEETKAMESQRAYRFVQGKDWGVKKFIRRDFLLDEANGLLPDDKLTLFCEVSVVQDSVNISGQNTMNMVKVPECRLADELGGLWENSRFTDCCLCVAGQEFQAHKAILAARSPVFSAMFEHEMEESKKNRVEINDVEPEVFKEMMCFIYTGKAPNLDKMADDLLAAADKYALERLKVMCEDALCSNLSVENAAEILILADLHSADQLKTQAVDFINYHASDVLETSGWKSMVVSHPHLVAEAYRSLASAQCPFLGPPRKRLKQS [F133V]

Variants of: B1
Conditions: with smuf1_human SMURF1, Q9HCE7
Chain of smuf1_human SMURF1, Q9HCE7 (Q9HCE7 whole entry): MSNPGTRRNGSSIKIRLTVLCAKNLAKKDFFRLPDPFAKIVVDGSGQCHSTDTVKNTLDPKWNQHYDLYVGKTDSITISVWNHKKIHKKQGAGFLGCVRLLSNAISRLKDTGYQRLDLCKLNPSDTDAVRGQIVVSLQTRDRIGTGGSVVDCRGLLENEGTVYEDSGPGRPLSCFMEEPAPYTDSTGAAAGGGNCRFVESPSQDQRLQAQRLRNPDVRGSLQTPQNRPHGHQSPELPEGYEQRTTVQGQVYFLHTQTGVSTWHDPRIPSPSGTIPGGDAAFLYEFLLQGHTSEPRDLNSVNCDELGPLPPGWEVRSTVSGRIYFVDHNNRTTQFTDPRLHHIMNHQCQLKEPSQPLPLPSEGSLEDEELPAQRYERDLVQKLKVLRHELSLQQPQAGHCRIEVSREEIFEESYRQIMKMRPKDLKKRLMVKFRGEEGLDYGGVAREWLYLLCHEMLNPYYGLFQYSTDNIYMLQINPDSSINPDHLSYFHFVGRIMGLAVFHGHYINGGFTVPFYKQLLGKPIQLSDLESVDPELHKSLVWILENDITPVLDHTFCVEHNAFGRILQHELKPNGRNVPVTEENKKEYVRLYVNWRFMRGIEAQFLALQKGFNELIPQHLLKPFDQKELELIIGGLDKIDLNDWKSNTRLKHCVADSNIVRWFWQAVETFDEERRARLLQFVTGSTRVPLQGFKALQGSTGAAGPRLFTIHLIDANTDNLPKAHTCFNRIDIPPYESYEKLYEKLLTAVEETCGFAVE

effect of a mutation on the interaction	Variant
with no effect	MSRVPSPPPPAEMSSGPVAESWCYTQIKVVKFSYMWTINNFSFCREEMGEVIKSSTFSSGANDKLKWCLRVNPKGLDEESKDYLSLYLLLVSCPKSEVRAKFKFSILNAKGEETKAMESQRAYRFVQGKDWGVKKFIRRDFLLDEANGLLPDDKLTLFCEVSVVQDSVNISGQNTMNMVKVPECRLADELGGLWENSRFTDCCLCVAGQEFQAHKAILAARSPVFSAMFEHEMEESKKNRVEINDVEPEVFKEMMCFIYTGKAPNLDKMADDLLAAADKYALERLKVMCEDALCSNLSVENAAEILILADLHSADQLKTQAVDFINYHASDVLETSGWKSMVVSHPHLVAEAYRSLASAQCPFLGPPRKRLKQS [F133V]

Variants of: B1
Conditions: with socs1_human SOCS1, O15524
Chain of socs1_human SOCS1, O15524 (O15524 whole entry): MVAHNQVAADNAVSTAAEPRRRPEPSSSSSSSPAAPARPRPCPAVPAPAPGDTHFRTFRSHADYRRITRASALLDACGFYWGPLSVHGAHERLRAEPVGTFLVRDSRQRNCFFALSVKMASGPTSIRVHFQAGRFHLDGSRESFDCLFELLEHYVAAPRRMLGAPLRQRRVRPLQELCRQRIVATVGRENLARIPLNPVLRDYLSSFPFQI

effect of a mutation on the interaction	Variant
with no effect	MSRVPSPPPPAEMSSGPVAESWCYTQIKVVKFSYMWTINNFSFCREEMGEVIKSSTFSSGANDKLKWCLRVNPKGLDEESKDYLSLYLLLVSCPKSEVRAKFKFSILNAKGEETKAMESQRAYRFVQGKDWGVKKFIRRDFLLDEANGLLPDDKLTLFCEVSVVQDSVNISGQNTMNMVKVPECRLADELGGLWENSRFTDCCLCVAGQEFQAHKAILAARSPVFSAMFEHEMEESKKNRVEINDVEPEVFKEMMCFIYTGKAPNLDKMADDLLAAADKYALERLKVMCEDALCSNLSVENAAEILILADLHSADQLKTQAVDFINYHASDVLETSGWKSMVVSHPHLVAEAYRSLASAQCPFLGPPRKRLKQS [F133V]

Variants of: B1
Conditions: with sox10_human SOX10, P56693
Chain of sox10_human SOX10, P56693 (P56693 whole entry): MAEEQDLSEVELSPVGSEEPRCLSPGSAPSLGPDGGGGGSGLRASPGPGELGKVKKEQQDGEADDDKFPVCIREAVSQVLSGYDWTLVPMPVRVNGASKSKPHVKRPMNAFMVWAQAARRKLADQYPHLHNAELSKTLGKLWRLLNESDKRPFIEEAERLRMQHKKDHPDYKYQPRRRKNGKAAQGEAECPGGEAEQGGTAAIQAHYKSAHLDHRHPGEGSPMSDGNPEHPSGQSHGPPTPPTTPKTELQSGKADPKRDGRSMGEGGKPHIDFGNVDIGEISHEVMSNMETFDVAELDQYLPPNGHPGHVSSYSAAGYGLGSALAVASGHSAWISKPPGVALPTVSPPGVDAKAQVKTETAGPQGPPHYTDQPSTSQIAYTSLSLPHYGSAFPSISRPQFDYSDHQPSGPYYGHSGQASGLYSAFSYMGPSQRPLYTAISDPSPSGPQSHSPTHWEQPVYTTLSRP

effect of a mutation on the interaction	Variant
with no effect	MSRVPSPPPPAEMSSGPVAESWCYTQIKVVKFSYMWTINNFSFCREEMGEVIKSSTFSSGANDKLKWCLRVNPKGLDEESKDYLSLYLLLVSCPKSEVRAKFKFSILNAKGEETKAMESQRAYRFVQGKDWGVKKFIRRDFLLDEANGLLPDDKLTLFCEVSVVQDSVNISGQNTMNMVKVPECRLADELGGLWENSRFTDCCLCVAGQEFQAHKAILAARSPVFSAMFEHEMEESKKNRVEINDVEPEVFKEMMCFIYTGKAPNLDKMADDLLAAADKYALERLKVMCEDALCSNLSVENAAEILILADLHSADQLKTQAVDFINYHASDVLETSGWKSMVVSHPHLVAEAYRSLASAQCPFLGPPRKRLKQS [F133V]
